According to the RNAGym collection of RNA variant scans (doi:10.7554/elife.80360):

B1: Twister Ribozyme (parent)
chain: AACACUGCCAAUGCCGGUCCCAAGCCCGGAUAAAAGUGGAGGGGGCGG

Variants of: B1
Experiment: self-cleavage, relative activity (ratio to wild type); higher = more cleavage; co-transcriptional

Variant	self-cleavage
AACACUGCCAAUGCCGGUGCCAAGCCCAGAUAAAAGUGGAGGGGGCGG [C19G G28A]	0.211
AACACUGCCAAUGCCGGUGCCAAGCCCUGAUAAAAGUGGAGGGGGCGG [C19G G28U]	0.212
AACACUGCCAAUGCCGGUACCAAGCCCGGAUAAAAUUGGAGGGGGCGG [C19A G36U]	0.0959
AACACUGCCAAUGCCGGUACCAAGCCCGGAUAAAACUGGAGGGGGCGG [C19A G36C]	0.0909
AACACUGCCAAUGCCGGUGCCAAGCUCGGAUAAAAGUGGAGGGGGCGG [C19G C26U]	0.0735
AACACUGCCAAUGCCGGUACCAAGCCCGGAUAAAAGUGUAGGGGGCGG [C19A G39U]	0.124
AACACUGCCAAUGCCGGUGCCAAGCCCGGAUAAAAGUGGAGGGAGCGG [C19G G44A]	0.351
AACACUGCCAAUGCCGGGCCCAAGCCCGGAUAAAAGUGGAGGGGGCCG [U18G G47C]	0.0806
AACACUGCCAAUGCCGGUACCAAGCCCGGAUAAAAGUGGAGGGCGCGG [C19A G44C]	0.746
AACACUGCCAAUGCCGGUACCAAGCCCGGAUAAAAGUGGAGGGUGCGG [C19A G44U]	0.679
AACACUGCCAAUGCCGGUACCAAGCCCGGAUAAAUGUGGAGGGGGCGG [C19A A35U]	0.29
AACACUGCCAAUGCCGGUACCAAGCCCGGAUAAACGUGGAGGGGGCGG [C19A A35C]	0.313
AACACUGCCAAUGCCGGGCCCAAGCCCGGAUAAAAGUGGAGGGGGCGA [U18G G48A]	0.0606
AACACUGCCAAUGCCGGGCCCAAGCCCGGAUAAAAGUGGAGGGGGCGC [U18G G48C]	0.111
AACACUGCCAAUGCCGGUACCAAGCCCGGAUAAAAGUGGGGGGGGCGG [C19A A40G]	0.124
AACACUGCCAAUGCCGGGCCCAAGCCCGAAUAAAAGUGGAGGGGGCGG [U18G G29A]	0.089
AACACUGCCAAUGCCGGGCCCAAGCCCGUAUAAAAGUGGAGGGGGCGG [U18G G29U]	0.0942
AACACUGCCAAUGCCGGUGCCAAGCCCGGAUUAAAGUGGAGGGGGCGG [C19G A32U]	0.287
AACACUGCCAAUGCCGGUGCCAAGCCCGGAUCAAAGUGGAGGGGGCGG [C19G A32C]	0.386
AACACUGCCAAUGCCGGUUCCGAGCCCGGAUAAAAGUGGAGGGGGCGG [C19U A22G]	0.0788
AACACUGCCAAUGCCGGUGCCAAGCCCGGAUAAAAUUGGAGGGGGCGG [C19G G36U]	0.099
AACACUGCCAAUGCCGGUACCAAGCCCGGAUAAAAGUGGAGGGGGCUG [C19A G47U]	0.131

Variant	self-cleavage
AACACUGCCAAUGCCGGUGCCAAGCCCGGAUAAAAGUGGAGGGGGCGA [C19G G48A]	0.167
AACACUGCCAAUGCCGGUGCCAAGCCCGGUUAAAAGUGGAGGGGGCGG [C19G A30U]	0.456
AACACUGCCAAUGCCGGUGCCAAGCCCGGGUAAAAGUGGAGGGGGCGG [C19G A30G]	0.468
AACACUGCCAAUGCCGGUACCAAGCCCGGAUAACAGUGGAGGGGGCGG [C19A A34C]	0.0755
AACACUGCCAAUGCCGGUACCAAGCCCGGAUAAGAGUGGAGGGGGCGG [C19A A34G]	0.101
AACACUGCCAAUGCCGGGCCCAAGCCCGGAUAAAAGUAGAGGGGGCGG [U18G G38A]	0.0601
AACACUGCCAAUGCCGGGCCCAAGCCCGGAUAAAAGUGGAGGGGCCGG [U18G G45C]	0.0995
AACACUGCCAAUGCCGGGCCCAAGCCCGGAUAAAAGUGGAGGGGUCGG [U18G G45U]	0.0852
AACACUGCCAAUGCCGGGCCCAAGCCCGGAUAAAAGUGGAGGGGACGG [U18G G45A]	0.0963
AACACUGCCAAUGCCGGUACCAAGCCCGGAUAAAAGAGGAGGGGGCGG [C19A U37A]	0.0721
AACACUGCCAAUGCCGGUACAAAGCCCGGAUAAAAGUGGAGGGGGCGG [C19A C21A]	0.0702
AACACUGCCAAUGCCGGUACGAAGCCCGGAUAAAAGUGGAGGGGGCGG [C19A C21G]	0.0812
AACACUGCCAAUGCCGGUGCCAAGCCCGAAUAAAAGUGGAGGGGGCGG [C19G G29A]	0.258
AACACUGCCAAUGCCGGGCCCAAGCCCCGAUAAAAGUGGAGGGGGCGG [U18G G28C]	0.102
AACACUGCCAAUGCCGGUGCCAAGCCCGGAUAAAAGUGGAGGGGGCGG [C19G]	0.485
AACACUGCCAAUGCCGGUUCCAAGCCCGGAUAAAAGUGGAGGGGGCGG [C19U]	1.05
AACACUGCCAAUGCCGGUACCAAGCCCGGAUAAAAGUGGAGGGGGCGG [C19A]	0.384
AACACUGCCAAUGCCGGGCCCAAGCCCGGAUAAAAGUGGAGUGGGCGG [U18G G42U]	0.0585
AACACUGCCAAUGCCGGGCCCAAGCCCGGAUAAAAGUGGAGCGGGCGG [U18G G42C]	0.0775
AACACUGCCAAUGCCGGGCCCAAGCCCGGAUAAAAGUGGAGAGGGCGG [U18G G42A]	0.0696
AACACUGCCAAUGCCGGUGCCAAGCCCGGAUAAAAGUGGCGGGGGCGG [C19G A40C]	0.132
AACACUGCCAAUGCCGGUGCCAAGCCCGGAUAAAUGUGGAGGGGGCGG [C19G A35U]	0.34

Variant	self-cleavage
AACACUGCCAAUGCCGGUGCCAAGCCCGGAUAAACGUGGAGGGGGCGG [C19G A35C]	0.393
AACACUGCCAAUGCCGGUACCAAGCCCGGAUAAAAGUCGAGGGGGCGG [C19A G38C]	0.0851
AACACUGCCAAUGCCGGUGCCAAGCCCGGAUAAAAGUGGAGGGGGGGG [C19G C46G]	0.165
AACACUGCCAAUGCCGGUGCCAAGCCCGGAUAAAAGUGGAGGGGGUGG [C19G C46U]	0.359
AACACUGCCAAUGCCGGUACCAAGCCCCGAUAAAAGUGGAGGGGGCGG [C19A G28C]	0.135
AACACUGCCAAUGCCGGUACCAAGCCCAGAUAAAAGUGGAGGGGGCGG [C19A G28A]	0.184
AACACUGCCAAUGCCGGUACCAAGCCCGGAUAGAAGUGGAGGGGGCGG [C19A A33G]	0.155
AACACUGCCAAUGCCGGUACCGAGCCCGGAUAAAAGUGGAGGGGGCGG [C19A A22G]	0.0827
AACACUGCCAAUGCCGGUACCAAGCCCGGAUGAAAGUGGAGGGGGCGG [C19A A32G]	0.177
AACACUGCCAAUGCCGGGCCCAAGCCCGGAUAAAAGUGAAGGGGGCGG [U18G G39A]	0.107
AACACUGCCAAUGCCGGGCCCAAGCCCGGAUAAAAGUGUAGGGGGCGG [U18G G39U]	0.0734
AACACUGCCAAUGCCGGUACCAAGCCUGGAUAAAAGUGGAGGGGGCGG [C19A C27U]	0.0993
AACACUGCCAAUGCCGGUGCCUAGCCCGGAUAAAAGUGGAGGGGGCGG [C19G A22U]	0.0871
AACACUGCCAAUGCCGGUGCCCAGCCCGGAUAAAAGUGGAGGGGGCGG [C19G A22C]	0.219
AACACUGCCAAUGCCGGUUCCAUGCCCGGAUAAAAGUGGAGGGGGCGG [C19U A23U]	0.203
AACACUGCCAAUGCCGGUUCCAGGCCCGGAUAAAAGUGGAGGGGGCGG [C19U A23G]	0.219
AACACUGCCAAUGCCGGUACCAAGCACGGAUAAAAGUGGAGGGGGCGG [C19A C26A]	0.0793
AACACUGCCAAUGCCGGUACCAAGCGCGGAUAAAAGUGGAGGGGGCGG [C19A C26G]	0.0718
AACACUGCCAAUGCCGGUGCGAAGCCCGGAUAAAAGUGGAGGGGGCGG [C19G C21G]	0.0223
AACACUGCCAAUGCCGGUGCCAAGCCCGGAUAAAAGUGGAGCGGGCGG [C19G G42C]	0.139
AACACUGCCAAUGCCGGUGCCAAGCCCGGAUAAAAGUGGAGUGGGCGG [C19G G42U]	0.0912
AACACUGCCAAUGCCGGUGCCAAGCCCGGAUAACAGUGGAGGGGGCGG [C19G A34C]	0.0815

Variant	self-cleavage
AACACUGCCAAUGCCGGUGCCAAGCCCGGAUAAAAGUGGAGGGGGCUG [C19G G47U]	0.138
AACACUGCCAAUGCCGGUGCCAAGACCGGAUAAAAGUGGAGGGGGCGG [C19G C25A]	0.0881
AACACUGCCAAUGCCGGUGCCAAGCCCGGAUAAAAGUGGAGGGGCCGG [C19G G45C]	0.231
AACACUGCCAAUGCCGGUGCCAAGCCCGGAUAAAAGUGGAGGGGUCGG [C19G G45U]	0.174
AACACUGCCAAUGCCGGUGCCAAGCCUGGAUAAAAGUGGAGGGGGCGG [C19G C27U]	0.131
AACACUGCCAAUGCCGGGCCCAAGCCCGGAUAAAAGUGGAGGUGGCGG [U18G G43U]	0.0664
AACACUGCCAAUGCCGGGCCCAAGCCCGGAUAAAAGUGGACGGGGCGG [U18G G41C]	0.0434
AACACUGCCAAUGCCGGUGCCAAGCCCGGAUAAAAGGGGAGGGGGCGG [C19G U37G]	0.0722
AACACUGCCAAUGCCGGGCCCAAGCCCGGAUAAAAGGGGAGGGGGCGG [U18G U37G]	0.0758
AACACUGCCAAUGCCGGGCCCAAGCCCGGAUAAAAGAGGAGGGGGCGG [U18G U37A]	0.063
AACACUGCCAAUGCCGGUACCAAGUCCGGAUAAAAGUGGAGGGGGCGG [C19A C25U]	0.0834
AACACUGCCAAUGCCGGUAGCAAGCCCGGAUAAAAGUGGAGGGGGCGG [C19A C20G]	0.093
AACACUGCCAAUGCCGGUAACAAGCCCGGAUAAAAGUGGAGGGGGCGG [C19A C20A]	0.0769
AACACUGCCAAUGCCGGUAUCAAGCCCGGAUAAAAGUGGAGGGGGCGG [C19A C20U]	0.0818
AACACUGCCAAUGCCGGUACCAAGCCCGGAUAAAAGUGGAGGGGGGGG [C19A C46G]	0.177
AACACUGCCAAUGCCGGUACCAAGCCCGGAUAAAAGUGGAGGGGGUGG [C19A C46U]	0.304
AACACUGCCAAUGCCGGUGCCAAGCCCGGAUAAAAGUGGAGGAGGCGG [C19G G43A]	0.242
AACACUGCCAAUGCCGGUGCCAAGCCCGGAUAAAAGUGGAGGCGGCGG [C19G G43C]	0.711
AACACUGCCAAUGCCGGUACCAAGCCCGGAUAAAAGUGGAGGAGGCGG [C19A G43A]	0.355
AACACUGCCAAUGCCGGUACCAAGCCCGGAUAAAAGUGGAGGUGGCGG [C19A G43U]	0.732
AACACUGCCAAUGCCGGUACCAAGCCCGCAUAAAAGUGGAGGGGGCGG [C19A G29C]	0.0998
AACACUGCCAAUGCCGGUACCAAGCCCGUAUAAAAGUGGAGGGGGCGG [C19A G29U]	0.207

Variant	self-cleavage
AACACUGCCAAUGCCGGUACCAACCCCGGAUAAAAGUGGAGGGGGCGG [C19A G24C]	0.0773
AACACUGCCAAUGCCGGUGCCAAGCCCGGAUAGAAGUGGAGGGGGCGG [C19G A33G]	0.175
AACACUGCCAAUGCCGGUGCCAAGCCCGGAUAUAAGUGGAGGGGGCGG [C19G A33U]	0.187
AACACUGCCAAUGCCGGUACCAAGCCCGGCUAAAAGUGGAGGGGGCGG [C19A A30C]	0.124
AACACUGCCAAUGCCGGGCCCAAGCCCGGAUAAAAGUGGAGGGAGCGG [U18G G44A]	0.0959
AACACUGCCAAUGCCGGUGCCAAGCCCGGAAAAAAGUGGAGGGGGCGG [C19G U31A]	0.346
AACACUGCCAAUGCCGGUGGCAAGCCCGGAUAAAAGUGGAGGGGGCGG [C19G C20G]	0.0478
AACACUGCCAAUGCCGGUGCCAAUCCCGGAUAAAAGUGGAGGGGGCGG [C19G G24U]	0.0534
AACACUGCCAAUGCCGGGCCCAAGCCCGGAUAAAAUUGGAGGGGGCGG [U18G G36U]	0.083
AACACUGCCAAUGCCGGUACCAGGCCCGGAUAAAAGUGGAGGGGGCGG [C19A A23G]	0.0964
AACACUGCCAAUGCCGGUACCAUGCCCGGAUAAAAGUGGAGGGGGCGG [C19A A23U]	0.114
AACACUGCCAAUGCCGGUACCAAGCCCGGAUAAAAGUGGAAGGGGCGG [C19A G41A]	0.0916
AACACUGCCAAUGCCGGUACCAAGCCCGGAAAAAAGUGGAGGGGGCGG [C19A U31A]	0.219
AACACUGCCAAUGCCGGUACCAAGCCCGGACAAAAGUGGAGGGGGCGG [C19A U31C]	0.375
AACACUGCCAAUGCCGGUACCAAGCCCGGAUAAAAGUGGAGGGGGCGC [C19A G48C]	0.149
AACACUGCCAAUGCCGGUACCAAGCCCGGAUAAAAGUGGAGGGGGCGA [C19A G48A]	0.161
AACACUGCCAAUGCCGGUGCCAAGCCCGGAUAAAAGUCGAGGGGGCGG [C19G G38C]	0.152
AACACUGCCAAUGCCGGUGCCAAGCCCGGAUAAAAGUUGAGGGGGCGG [C19G G38U]	0.0929
AACACUGCCAAUGCCGGUACCAAGCCCGGAUAAAAGUGGAGGGGCCGG [C19A G45C]	0.233
AACACUGCCAAUGCCGGUGCCAUGCCCGGAUAAAAGUGGAGGGGGCGG [C19G A23U]	0.11
